{"source": "paper PMC4159350", "about": "“Structure of the N-Terminal Gyrase B Fragment in Complex with ADP⋅Pi Reveals Rigid-Body Motion Induced by ATP Hydrolysis” (PLoS ONE, 2014)", "target": "the molecule itself", "assay": "crystal structure; GyrB43 incubated with a 15 fold molar excess of ATP and MgCl2 (hydrolysed to ADP.Pi), 50 mM Na-phosphate buffer; sitting drop, 20°C, 0.1 M tri-ammonium citrate pH 6.5, 25% PEG 2000; space group C2221, 1.8 Å; dimer by the crystallographic dyad"}
{"protein": "43 kDa N-terminal fragment of GyrB from E. coli (GyrB43) (domain or fragment, DNA gyrase subunit B (GyrB), E. coli, residues 1-392, comprising the ATPase domain (20-220) and the transducer domain (221-392); amplified from E. coli genomic DNA; By the forward primer the His6 codons follow the start ATG and are followed by the codons of S2, N3, S4, Y5; No removal of the tag is described; The dimer is formed by a crystallographic two-fold axis (one monomer per asymmetric …)) not shown", "values": [{"measurement": "binding result", "value": "binds"}]}
